Experimental data taken from patent publication US20240132578A1.

Key:
Test in all cases: cell-based or functional assay
[1] = biological target: HIV-1 Env of isolate MGRM-AE-002 (pseudovirus) (HIV-1)
[2] = biological target: HIV-1 Env of pseudovirus isolate APV-17 (clade B) (HIV-1)
[3] = biological target: HIV-1 Env of pseudovirus isolate MGRM-Chronic-B-001 (clade B) (HIV-1)
[4] = biological target: HIV-1 Env of pseudovirus isolate JR-FL (clade B) (HIV-1)
[5] = biological target: aMLV envelope (negative control pseudovirus) (aMLV)
[6] = biological target: HIV-1 Env of isolate MG RM-A-013 (pseudovirus) (HIV-1)
[7] = biological target: HIV-1 Env of isolate MGRM-G-013 (subtype G) (HIV-1)
[8] = biological target: HIV-1 Env of isolate MGRM-C-026 (subtype C), on pseudovirus (HIV-1)
[9] = biological target: HIV-1 Env of isolate MGRM-C-019 (subtype C), on pseudovirus (HIV-1)
[10] = biological target: HIV-1 Env of pseudovirus MGRM-D-020 (HIV-1)
[11] = biological target: HIV-1 Env of pseudovirus MGRM-D-019 (HIV-1)
[12] = biological target: HIV-1 Env of isolate MGRM-AE-008 (subtype AE) (HIV-1)
[13] = biological target: HIV-1 Env of isolate 98CN006 (pseudovirus) (HIV-1)
[14] = biological target: HIV-1 Env of isolate 98CN009 (pseudovirus) (HIV-1)
[15] = biological target: HIV-1 Env of isolate MGRM-C-002 (HIV-1)
[16] = biological target: HIV-1 Env of isolate MGRM-A-001 (pseudovirus) (HIV-1)
[17] = biological target: HIV-1 Env of isolate MGRM-AG-013 (subtype AG) (HIV-1)
[18] = biological target: HIV-1 Env of pseudovirus isolate MGRM-C-023 (clade C) (HIV-1)
[19] = biological target: HIV-1 Env of isolate MGRM-AG-005 (subtype AG) (HIV-1)
[20] = biological target: HIV-1 JR-CSF Env I307A (HIV-1 (isolate JR-CSF, clade B)) (UniProt P20871)
[21] = biological target: HIV-1 Env of isolate MGRM-AE-002 (subtype AE) (HIV-1)
[22] = biological target: HIV-1 envelope glycoprotein (Env) of isolate MGRM-C-014 (HIV-1)
[23] = biological target: HIV-1 MGRM-G-001 Env (pseudovirus) (HIV-1)
[24] = biological target: HIV-1 Env of pseudovirus MGRM-G-017 (HIV-1)
[25] = biological target: HIV-1 Env of isolate NL43, clade B (HIV-1)
[26] = biological target: HIV-1 MGRM-C-027 Env (HIV-1)
[27] = biological target: HIV-1 Env of isolate PVO.4 (Acute), clade B (HIV-1)
[28] = biological target: HIV-1 Env of isolate MGRM-D-019 (clade D pseudovirus) (HIV-1)
[29] = biological target: HIV-1 Env of isolate 92TH021 (CRF01_AE) (HIV-1)
[30] = biological target: HIV-1 Env of isolate MGRM-D-004 (clade D pseudovirus) (HIV-1)
[31] = biological target: HIV-1 Env of pseudovirus MGRM-F1-020 (clade F) (HIV-1)
[32] = biological target: HIV-1 Env of isolate 92UG046 (clade D pseudovirus) (HIV-1)
[33] = biological target: HIV-1 envelope glycoprotein (Env) of isolate 92WR009, subtype A (HIV-1)
[34] = biological target: HIV-1 envelope glycoprotein (Env) of isolate TRO.11, on pseudovirus (HIV-1)
[35] = biological target: HIV-1 envelope glycoprotein (Env) of isolate MGRM-Chronic-B-011, on pseudovirus (HIV-1)
[36] = biological target: HIV-1 Env of isolate MGRM-F1-018 (pseudovirus) (HIV-1)
[37] = biological target: HIV-1 envelope glycoprotein (Env) of isolate MG RM-A-001, subtype A (HIV-1)
[38] = biological target: HIV-1 MGRM-AG-005 envelope protein (Env) on pseudovirus (HIV-1)

Q: Which results are given for 4995_E20 (PGT-142) (antibody)?
A: IC50 (µg/mL), single-round pseudovirus neutralization [1]: > 50 µg/mL; IC50, pseudovirus neutralization [2]: 0.628 µg/mL; IC50, pseudovirus neutralization [3]: > 50 µg/mL; IC50, pseudovirus neutralization [4]: > 50 µg/mL; IC50 (µg/mL), pseudovirus neutralization [5]: > 50 µg/mL; IC50 (µg/mL), single-round pseudovirus neutralization [6]: 3.77 µg/mL; IC50 (µg/mL), pseudovirus neutralization [7]: > 50 µg/mL; IC50, single-round pseudovirus neutralization [8]: > 50 µg/mL; IC50, single-round pseudovirus neutralization [9]: 0.003 µg/mL

Q: For PGT-143 (4980_N08) (antibody), which IC50, pseudovirus neutralization [10] is on record?
A: > 50 µg/mL

Q: What about the IC50, pseudovirus neutralization [11] of the same substance?
A: 0.277 µg/mL

Q: Which results are given for 5114_A19 (PGT-128) (antibody)?
A: IC50, pseudovirus neutralization [12]: > 50 µg/mL; IC50 (µg/mL), pseudovirus neutralization [13]: 0.015 µg/mL; IC50 (µg/mL), pseudovirus neutralization [14]: 0.025 µg/mL; IC50 (µg/mL), pseudovirus neutralization [15]: 0.019 µg/mL; IC50 (µg/mL), pseudovirus neutralization [16]: > 50 µg/mL; IC50, pseudovirus neutralization [17]: 0.004 µg/mL; IC50, pseudovirus neutralization [18]: 0.026 µg/mL; IC50, pseudovirus neutralization [19]: 0.037 µg/mL; Fold IC50 increase relative to wild-type [20]: 3.7 fold; IC50, pseudovirus neutralization [21]: 0.522 µg/mL

Q: With PGT-144 (4970_K22) (antibody) as the substance, how does the IC50, pseudovirus neutralization [10] read?
A: > 50 µg/mL

Q: And the IC50, pseudovirus neutralization [11]?
A: > 50 µg/mL

Q: For VRC01 (antibody), which IC50 (µg/mL), single-round pseudovirus neutralization [1] is on record?
A: 0.217 µg/mL

Q: What about the IC50, pseudovirus neutralization [2] of the same substance?
A: 0.477 µg/mL

Q: And the IC50, pseudovirus neutralization [3]?
A: 0.066 µg/mL

Q: What about the IC50, pseudovirus neutralization [4] of the same substance?
A: 0.034 µg/mL

Q: What about the IC50, pseudovirus neutralization [10] of the same substance?
A: 0.192 µg/mL

Q: What about the IC50 (µg/mL), pseudovirus neutralization [5] of the same substance?
A: > 50 µg/mL

Q: What about the IC50 (µg/mL), single-round pseudovirus neutralization [6] of the same substance?
A: 0.152 µg/mL

Q: What about the IC50, pseudovirus neutralization [11] of the same substance?
A: 0.119 µg/mL

Q: And the IC50 (µg/mL), pseudovirus neutralization [7]?
A: 0.553 µg/mL

Q: And the IC50, single-round pseudovirus neutralization [8]?
A: 0.707 µg/mL

Q: And the IC50, single-round pseudovirus neutralization [9]?
A: 1.13 µg/mL

Q: How did the IC50 (µg/mL), single-round pseudovirus neutralization [1] turn out when 4980_N08 (PGT-143) (antibody) was run?
A: > 50 µg/mL

Q: And the IC50, pseudovirus neutralization [2]?
A: 1.11 µg/mL

Q: What about the IC50, pseudovirus neutralization [3] of the same substance?
A: > 50 µg/mL

Q: What about the IC50, pseudovirus neutralization [4] of the same substance?
A: > 50 µg/mL

Q: What about the IC50 (µg/mL), pseudovirus neutralization [5] of the same substance?
A: > 50 µg/mL

Q: And the IC50 (µg/mL), single-round pseudovirus neutralization [6]?
A: 9.24 µg/mL

Q: And the IC50 (µg/mL), pseudovirus neutralization [7]?
A: > 50 µg/mL

Q: And the IC50, single-round pseudovirus neutralization [8]?
A: > 50 µg/mL

Q: And the IC50, single-round pseudovirus neutralization [9]?
A: 0.004 µg/mL

Q: How did the IC50 (µg/mL), pseudovirus neutralization [1] turn out when 1496_C09 (PG9) (TCN-109) (antibody) was run?
A: 0.04 µg/mL

Q: What about the IC50 (µg/ml), pseudovirus neutralization [22] of the same substance?
A: 0.64 µg/mL

Q: What about the IC50 (µg/ml), pseudovirus neutralization [23] of the same substance?
A: 0.16 µg/mL

Q: And the IC50 (µg/ml), pseudovirus neutralization [24]?
A: 0.03 µg/mL

Q: And the IC50 (µg/ml), pseudovirus neutralization [25]?
A: 0.32 µg/mL

Q: What about the IC50, pseudovirus neutralization [26] of the same substance?
A: 2.45 µg/mL

Q: What about the IC50 (µg/ml), pseudovirus neutralization [27] of the same substance?
A: 4.01 µg/mL

Q: What about the IC50, pseudovirus neutralization [28] of the same substance?
A: 0.03 µg/mL

Q: What about the IC90 (neutralization of pseudovirus) [29] of the same substance?
A: 1.99 µg/mL

Q: What about the IC50, pseudovirus neutralization [30] of the same substance?
A: 0.03 µg/mL

Q: And the IC50 [31]?
A: 4.55 µg/mL

Q: And the IC50, pseudovirus neutralization [32]?
A: 0.64 µg/mL

Q: For 4993_K13 (PGT-141) (antibody), which IC50 (µg/mL), single-round pseudovirus neutralization [1] is on record?
A: > 50 µg/mL

Q: What about the IC50, pseudovirus neutralization [2] of the same substance?
A: 0.59 µg/mL

Q: What about the IC50, pseudovirus neutralization [3] of the same substance?
A: > 50 µg/mL

Q: And the IC50, pseudovirus neutralization [4]?
A: > 50 µg/mL

Q: What about the IC50 (µg/mL), pseudovirus neutralization [5] of the same substance?
A: > 50 µg/mL

Q: What about the IC50 (µg/mL), single-round pseudovirus neutralization [6] of the same substance?
A: 9.86 µg/mL

Q: What about the IC50 (µg/mL), pseudovirus neutralization [7] of the same substance?
A: > 50 µg/mL

Q: And the IC50, single-round pseudovirus neutralization [8]?
A: > 50 µg/mL

Q: And the IC50, single-round pseudovirus neutralization [9]?
A: 0.008 µg/mL

Q: PGV04 (antibody) was tested. Which IC50 (µg/mL), pseudovirus neutralization [1] did it give?
A: 0.569 µg/mL

Q: What about the IC50 (µg/mL), pseudovirus neutralization [5] of the same substance?
A: > 50 µg/mL

Q: What about the IC50 (µg/mL), pseudovirus neutralization [7] of the same substance?
A: 0.168 µg/mL

Q: What does the source list for 5145_B14 (PGT-127) (antibody)?
A: IC50, pseudovirus neutralization [33]: > 50 µg/mL; IC50, pseudovirus neutralization [34]: 0.079 µg/mL; IC50, pseudovirus neutralization [35]: 0.297 µg/mL; IC50 (µg/mL), pseudovirus neutralization [36]: 3.59 µg/mL; Fold IC50 increase relative to wild-type [20]: 10.2 fold; IC50, pseudovirus neutralization [37]: > 50 µg/mL

Q: With 4838_L06 (PGT-121) (antibody) as the substance, how does the IC50, pseudovirus neutralization [33] read?
A: 1.74 µg/mL

Q: And the IC50, pseudovirus neutralization [34]?
A: 0.008 µg/mL

Q: And the IC50, pseudovirus neutralization [35]?
A: > 50 µg/mL

Q: What about the IC50 (µg/mL), pseudovirus neutralization [36] of the same substance?
A: 0.04 µg/mL

Q: And the IC50, pseudovirus neutralization [37]?
A: > 50 µg/mL

Q: Which results are given for 4858_P08 (PGT-123) (antibody)?
A: IC50, pseudovirus neutralization [33]: 15.7 µg/mL; IC50, pseudovirus neutralization [34]: 0.008 µg/mL; IC50, pseudovirus neutralization [26]: 0.0169 µg/mL; IC50, pseudovirus neutralization [35]: > 50 µg/mL; IC50 (ug/mL), pseudovirus neutralization [38]: 0.104 µg/mL; IC50 (µg/mL), pseudovirus neutralization [36]: 0.054 µg/mL; Fold IC50 increase relative to wild-type [20]: 5.9 fold; IC50, pseudovirus neutralization [37]: > 50 µg/mL
